From US20030171559A1 (Amgen, published 2003)

T1: G-CSF receptor (natural G-CSF receptor, found on hematopoietic cells) (mouse (bone marrow cells of Balb C …, UniProt P40223 26-837))
T1 sequence (looked up): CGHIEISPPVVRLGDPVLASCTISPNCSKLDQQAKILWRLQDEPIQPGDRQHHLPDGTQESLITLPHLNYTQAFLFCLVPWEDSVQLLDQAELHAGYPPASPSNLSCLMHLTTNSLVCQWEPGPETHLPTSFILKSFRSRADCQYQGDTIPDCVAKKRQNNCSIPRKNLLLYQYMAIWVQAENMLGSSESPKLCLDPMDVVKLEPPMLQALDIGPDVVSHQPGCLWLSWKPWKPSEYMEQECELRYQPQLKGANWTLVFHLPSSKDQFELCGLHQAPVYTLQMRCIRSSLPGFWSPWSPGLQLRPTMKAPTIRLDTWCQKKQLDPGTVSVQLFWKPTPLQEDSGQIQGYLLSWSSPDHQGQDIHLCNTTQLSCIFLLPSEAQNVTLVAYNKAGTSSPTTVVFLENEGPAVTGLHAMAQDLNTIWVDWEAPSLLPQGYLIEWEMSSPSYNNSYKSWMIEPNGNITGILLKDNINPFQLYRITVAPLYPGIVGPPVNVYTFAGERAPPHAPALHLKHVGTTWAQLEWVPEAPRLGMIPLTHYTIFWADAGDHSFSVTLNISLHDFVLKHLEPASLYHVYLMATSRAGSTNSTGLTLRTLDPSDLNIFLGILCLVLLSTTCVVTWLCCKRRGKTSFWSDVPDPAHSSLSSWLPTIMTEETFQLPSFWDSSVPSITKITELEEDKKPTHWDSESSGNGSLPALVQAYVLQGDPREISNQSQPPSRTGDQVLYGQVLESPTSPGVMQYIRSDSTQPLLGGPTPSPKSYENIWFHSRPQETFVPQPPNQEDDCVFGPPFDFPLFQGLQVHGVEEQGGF

B1: G-CSF analog Glu47->Ala47 (ligand)
chain: MTPLGPASSLPQSFLLKCLEQVRKIQGDGAALQEKLCATYKLCHPEALVLLGHSLGIPWAPLSSCPSQALQLAGCLSQLHSGLFLYQGLLQALEGISPELGPTLDTLQLDVADFATTIWQQMEELGMAPALQPTQGAMPAFASAFQRRAGGVLVASHLQSFLEVSYRVLRHLAQP
B2: G-CSF analog Lys24->Ala24 (ligand)
chain: MTPLGPASSLPQSFLLKCLEQVRAIQGDGAALQEKLCATYKLCHPEELVLLGHSLGIPWAPLSSCPSQALQLAGCLSQLHSGLFLYQGLLQALEGISPELGPTLDTLQLDVADFATTIWQQMEELGMAPALQPTQGAMPAFASAFQRRAGGVLVASHLQSFLEVSYRVLRHLAQP
B3: G-CSF analog Arg23->Ala23 (ligand)
chain: MTPLGPASSLPQSFLLKCLEQVAKIQGDGAALQEKLCATYKLCHPEELVLLGHSLGIPWAPLSSCPSQALQLAGCLSQLHSGLFLYQGLLQALEGISPELGPTLDTLQLDVADFATTIWQQMEELGMAPALQPTQGAMPAFASAFQRRAGGVLVASHLQSFLEVSYRVLRHLAQP

Target: T1, G-CSF receptor (natural G-CSF receptor, …)
Test: cell-based or functional assay

Binder | % Normal G-CSF Activity (3H-thymidine uptake, mouse bone marrow cells) [%]
B1 | 0
B2 | 0
B3 | 31
